A short description of the data set: yeast display, Sf9 membrane polyspecificity reagent, FACS + sequencing; frameworks hold sequencing errors. In short, it runs like this: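 Polyreactivity labels are assigned by the sorting gate from which each nanobody was recovered. The gates were low and high (top ~1%), set on anti-HA fluorescence for expression and streptavidin fluorescence for reagent binding. Before sorting, galactose-induced (36–48 hours) yeast display cells were stained for 1 hour at 4 °C with 10% biotinylated, detergent-solubilized Sf9 membrane reagent.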
For “QVQLVESGGGLVHAGGSLRLSCAASGSIIDRNAMGWYRQAPGKERELVASITRGGSTNYADSVKGRFTISRDNEKNTVYLQMNSLKPEDTAVYYCADDRVYLGMFRYEYWGQGTQVTVSS”, the “polyreactivity (PSR sort gate)” value is recorded as “high polyreactivity”.

For the sequence “QVQLVESGGGLVQAGGSLRLSCAASGRIFGYYAMGWYRQATGKERELVADITESGTSTYYADSVKGRFTISRDNAKNTVYLQMNSLKPEDTAVYYCAAGYWWRYALYVYWGQGTQVTVSS”, the “polyreactivity (PSR sort gate)” value was “low polyreactivity”.

As for “QVQLVESRGGLVQAGGSLRLSCAASGRTFRSYVMGWYRQAPGKERELVAAITTSGGSTYYADSVKGRFTISRDTAKNTVYLQMNSLKPEETAVYYCAAEYYTYTGHYDSWYGDDYWGQGTQVTVSS”, the “polyreactivity (PSR sort gate)” value is given as “high polyreactivity”.

“QVQLVESGGGLVQAGGSLRLSCAASGFIFDGNAMGWYRPAPGKERELVAAIRSGGRTNYADSVNGRFTISRDNAKNTVYLQMNSLKPEDTAVYYCAARSIYPYYYRRDNRYYYWGQGTQVTVSS”: the “polyreactivity (PSR sort gate)” value is recorded as “high polyreactivity”.

Regarding “QVQLVESGGGLVLAGRSLRLICAASGSIFVYNAMGWYRQAPGKERELVAAISWSGGRTYYADSVKGRFTISRDNAKNTVYLQMNSLKPEDTAVYYCAALYTLRGYYYGTEYDYWGQGTQVTVSS”, the “polyreactivity (PSR sort gate)” value is recorded as “high polyreactivity”.

For the sequence “QVQLVESGGGLVQAGGSLRLSCAASGRTFSAYAMGWYRQAPGKEREFVAAITFNTGSTYYADSVKGRFTISRDNAKNTVYLQMNSLKPEDTAVYYCAAALVGSVGYKGFDGFDYWGQGTQVTVSS”, the “polyreactivity (PSR sort gate)” value is listed as “low polyreactivity”.

For the sequence “QVQLVDSGGGLVQAGGSLRLSCAASGLTILPNAMGWSRQAPGNDRELVAAISWGDGNTYYADSVKGRFTISRDNAKNTVYLQMNSLKPEDTAVYYCAADVIKSRTYDYWGQGTQVTVSS”, the “polyreactivity (PSR sort gate)” value is “low polyreactivity”.

Turning to “QVQLVESGGGLVQAGGSLRLSCAPSGRTFSVHAMGWYRPARGKGRELVAAISWDGGSTYYADSVKGRFTISRDNANNTVYLQMNSLKPEETAVYYCNKDLYYAYDYWGQGTQVTVSS”, the “polyreactivity (PSR sort gate)” value is on record as “low polyreactivity”.

Regarding “QVQRVESGGGLVQAGGSLRLSCAASGRTFPPYAMGWYRQAPGKERELVASIRRGGSTHYADSVKGRFTISRDNAKNTVYLQMNSLKPEDTAVYYCNADVIFGYTHYNYWGQGTQVTVSS”, the “polyreactivity (PSR sort gate)” value was “high polyreactivity”.

“QVQLVESGGGLVQAGGSLRLSCAASGSIFKYYTMGWYRQAPGKDRELVAAISSGGSTTYADSVKGRFTISRDNAKNSVYLQMNSLKPEDTAVYCCAAGYGYPTFVERDYWGHGTQVTVSS”: the “polyreactivity (PSR sort gate)” value is “high polyreactivity”.

As for “QVQLEESGGGLVQAGGSLRLSCAASGSTFEGYAMGWYRQAPGKERELVAVISSGSITKYADSVKGRFTISRDNAKNTVFLQINSLKPEDTAVYYCARKGGIIFASYLLGGYWGQGTQVTVSS”, the “polyreactivity (PSR sort gate)” value is given as “low polyreactivity”.

For “QVQLVESGGGLVQAGGSLRLSCAASGITFRWNAMGWYRQAPGKERELVAAITTRGGGTYYADSVKGRFTISRDNAKNTVYLQMNSLKPEDTAVYYCAAKKSRYPYNYWGQGTQVTVSS”, the “polyreactivity (PSR sort gate)” value was “high polyreactivity”.

As to “QVQLVESGGGLVQAGGSLRLSCAASGGIFEAYVMGWYRQAPGKERELVAAISFRGGSTYYADSVKGRFTISRDNAKNTVYLQMNSLKPEDTAVYYCAADYRHQGYDYWGLGTQVTVSS”, the “polyreactivity (PSR sort gate)” value is given as “low polyreactivity”.

Take “QVQLVESGGGLVQAGGSLRLSCAASGIFAWNAMGWYRQAPGKERELVAAISWSGGSTYADSVKGRFTISRDNAKNTVYLQMNSLKPEDTAVYYCAKVSSLTSKSDYSGQGTQVTVSS”: the “polyreactivity (PSR sort gate)” value was “low polyreactivity”.

In the case of “QVQLVESGGGLVQAGGSLRLSCAASGSTYENAMGWYRQAPGKERELVAVISRSGGSTYYADSVKGRFTISRDNAKNTVYLQMNSLNPEDTAVYYCATVYSAWSWVHGYYVAMDYWGQGTQVTVSS”, the “polyreactivity (PSR sort gate)” value is “high polyreactivity”.

Regarding “QVQLVESGGGLVQSGGSLRLSCAASGITFYVYTMGWYRQAPGKERELVAAINGSGGSTNYADSVKGRFTISRDNAKNTVHLQMNSLKPEDTAVYYCAADWSLRLYDYWGQGTQVTVSS”, the “polyreactivity (PSR sort gate)” value was “low polyreactivity”.

Consider “QVQLVESGGGLVQAGGSLRLSCAASGSTFSANAMGWYRQAPGKERELVAAITYRGGNTYYADSVKGRFTISRDNAKNTVYLQMNSLKPEDTAVYYCNRDLRVRYRRLKYGYWGQGTQVTVSS”, for which the “polyreactivity (PSR sort gate)” value is listed as “low polyreactivity”.

As to “QVQLVESGGGLVQAGGSLRLSCAASGFIIARNAMGWYRQAPGKERELVAAISASGGRTYYADSVKGRFTISRDNAKNTVYLKKNSLKPEDTAVYYCAAAVLRYALRFDYWGQGTQVTVSS”, the “polyreactivity (PSR sort gate)” value was “high polyreactivity”.

“QDQLVESGGGLVQPGGSLRLSCAASGRTFRFNAMGWYRQAPGKERELVAVITSNDGSTYYADSVKGRFTISRDNAKNTVYLQMNSLKPEDTAVYYCAADWSYAWSWFYYWGQGTQVTVSS”: the “polyreactivity (PSR sort gate)” value is “low polyreactivity”.

Regarding “QVQLVESGGGLVQAGGSLRLSCAAYGSIFYFNAMGRYRQAPGKERELVASITSGGSTNYADSVKGRFTISRDNAKNTVYLQMNSLKPEETEVYYCNARFPYLSRWLVRGLASYDYWGQGTQVTVSS”, the “polyreactivity (PSR sort gate)” value is given as “low polyreactivity”.

The values are drawn from the nanobody polyreactivity screen of Harvey et al. (2022).
